# What was measured:
# Fyn = Fyn (UniProt P06241); assay: phosphorylation enrichment, bacterial display (enrichment ratio); higher = better substrate or ligand; peptides without Tyr show the background
# MERTK = MERTK (UniProt Q12866); assay: as above
# Hck = Hck (UniProt P08631); assay: as above
# EPHB2 = EPHB2 (UniProt P29323); assay: as above
# AncSZ = assay: as above
# Fer (mouse) = assay: as above
# Jak2 = Jak2 (UniProt O60674); assay: as above
# EPHB1 = EPHB1 (UniProt P54762); assay: as above
# FGFR3 = FGFR3 (UniProt P22607); assay: as above
# Fes = Fes (UniProt P07332); assay: as above
# FGFR1 = FGFR1 (UniProt P11362); assay: as above
# c-Abl (mouse) = assay: as above
# c-Src = assay: as above
# Grb2 SH2 = Grb2 SH2 (UniProt P62993); assay: SH2 binding enrichment of the phosphorylated peptide, bacterial display (enrichment ratio); higher = better substrate or ligand; peptides without Tyr show the background
# SHP2-C SH2 = assay: as above
# c-Src SH2 = assay: as above
# 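For SH2 binding enrichment of the phosphorylated peptide, bacterial display in this document: peptide library displayed on the E. coli surface as eCPX fusions, selected cells deep-sequenced, score is each peptide's frequency after selection divided by its frequency in the input.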
# 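For phosphorylation enrichment, bacterial display in this document: 11-residue human phosphosite peptides and single-mutation variants displayed on the E. coli surface, counted by deep sequencing, each peptide's frequency after selection divided by its frequency in the unselected input library; frequency after pTyr selection over input frequency; kinase dosed for 20-30% of maximal phosphorylation in three min.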
# Sequence of MERTK (Q12866 whole entry, looked up): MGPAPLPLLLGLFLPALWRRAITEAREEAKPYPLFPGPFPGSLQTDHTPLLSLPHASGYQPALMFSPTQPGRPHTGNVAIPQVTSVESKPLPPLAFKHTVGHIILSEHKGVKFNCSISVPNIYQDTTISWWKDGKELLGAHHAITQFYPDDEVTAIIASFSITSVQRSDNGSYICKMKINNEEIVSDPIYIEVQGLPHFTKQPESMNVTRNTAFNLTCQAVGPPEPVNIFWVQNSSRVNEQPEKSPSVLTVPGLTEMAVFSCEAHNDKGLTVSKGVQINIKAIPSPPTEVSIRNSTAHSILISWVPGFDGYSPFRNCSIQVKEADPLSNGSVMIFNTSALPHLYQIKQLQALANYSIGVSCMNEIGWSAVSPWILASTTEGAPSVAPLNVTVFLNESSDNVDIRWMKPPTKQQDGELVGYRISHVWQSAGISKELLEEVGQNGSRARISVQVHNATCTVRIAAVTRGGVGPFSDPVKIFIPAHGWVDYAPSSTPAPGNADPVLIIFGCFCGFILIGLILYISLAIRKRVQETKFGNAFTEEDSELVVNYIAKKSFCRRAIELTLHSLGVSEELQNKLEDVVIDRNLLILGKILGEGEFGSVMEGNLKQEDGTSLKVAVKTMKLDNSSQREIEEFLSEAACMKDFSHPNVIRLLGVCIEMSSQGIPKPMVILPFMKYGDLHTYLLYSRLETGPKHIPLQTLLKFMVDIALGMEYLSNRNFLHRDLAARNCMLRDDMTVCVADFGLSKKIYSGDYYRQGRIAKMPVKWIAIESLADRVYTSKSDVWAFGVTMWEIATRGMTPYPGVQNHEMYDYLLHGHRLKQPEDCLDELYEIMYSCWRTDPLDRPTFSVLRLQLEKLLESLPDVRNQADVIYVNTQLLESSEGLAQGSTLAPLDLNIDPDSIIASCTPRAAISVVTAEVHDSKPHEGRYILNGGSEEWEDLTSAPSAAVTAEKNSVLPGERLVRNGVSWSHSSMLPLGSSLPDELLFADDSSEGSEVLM
# Sequence of Jak2 (O60674 whole entry, looked up): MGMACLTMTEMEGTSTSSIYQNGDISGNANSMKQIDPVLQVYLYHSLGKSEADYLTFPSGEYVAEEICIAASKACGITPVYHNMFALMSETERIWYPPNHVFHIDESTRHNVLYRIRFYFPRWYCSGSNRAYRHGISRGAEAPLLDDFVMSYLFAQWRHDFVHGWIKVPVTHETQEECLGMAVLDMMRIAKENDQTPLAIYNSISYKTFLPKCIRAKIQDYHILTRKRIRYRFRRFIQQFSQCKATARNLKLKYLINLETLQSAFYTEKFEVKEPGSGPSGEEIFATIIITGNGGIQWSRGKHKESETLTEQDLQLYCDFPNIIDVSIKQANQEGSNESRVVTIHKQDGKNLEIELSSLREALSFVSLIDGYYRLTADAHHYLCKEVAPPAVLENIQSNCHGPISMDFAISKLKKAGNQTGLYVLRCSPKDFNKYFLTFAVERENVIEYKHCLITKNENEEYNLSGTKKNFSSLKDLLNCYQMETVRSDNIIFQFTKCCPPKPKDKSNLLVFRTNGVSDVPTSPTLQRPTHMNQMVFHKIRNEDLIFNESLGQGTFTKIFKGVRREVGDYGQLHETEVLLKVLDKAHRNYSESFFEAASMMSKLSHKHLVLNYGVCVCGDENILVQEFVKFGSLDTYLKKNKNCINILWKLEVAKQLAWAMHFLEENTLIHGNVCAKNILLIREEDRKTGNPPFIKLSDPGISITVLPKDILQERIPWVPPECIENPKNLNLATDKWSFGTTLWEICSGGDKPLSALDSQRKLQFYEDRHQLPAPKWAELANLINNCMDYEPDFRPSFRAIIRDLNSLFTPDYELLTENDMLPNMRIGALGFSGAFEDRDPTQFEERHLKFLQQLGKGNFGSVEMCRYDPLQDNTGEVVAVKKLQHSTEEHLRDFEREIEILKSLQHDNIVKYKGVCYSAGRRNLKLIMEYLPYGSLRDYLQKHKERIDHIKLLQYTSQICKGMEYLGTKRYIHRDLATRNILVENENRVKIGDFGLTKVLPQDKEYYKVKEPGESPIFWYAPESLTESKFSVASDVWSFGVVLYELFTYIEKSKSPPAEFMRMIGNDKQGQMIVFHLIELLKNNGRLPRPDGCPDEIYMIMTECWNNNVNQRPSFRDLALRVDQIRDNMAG
# Sequence of Fyn (P06241 whole entry, looked up): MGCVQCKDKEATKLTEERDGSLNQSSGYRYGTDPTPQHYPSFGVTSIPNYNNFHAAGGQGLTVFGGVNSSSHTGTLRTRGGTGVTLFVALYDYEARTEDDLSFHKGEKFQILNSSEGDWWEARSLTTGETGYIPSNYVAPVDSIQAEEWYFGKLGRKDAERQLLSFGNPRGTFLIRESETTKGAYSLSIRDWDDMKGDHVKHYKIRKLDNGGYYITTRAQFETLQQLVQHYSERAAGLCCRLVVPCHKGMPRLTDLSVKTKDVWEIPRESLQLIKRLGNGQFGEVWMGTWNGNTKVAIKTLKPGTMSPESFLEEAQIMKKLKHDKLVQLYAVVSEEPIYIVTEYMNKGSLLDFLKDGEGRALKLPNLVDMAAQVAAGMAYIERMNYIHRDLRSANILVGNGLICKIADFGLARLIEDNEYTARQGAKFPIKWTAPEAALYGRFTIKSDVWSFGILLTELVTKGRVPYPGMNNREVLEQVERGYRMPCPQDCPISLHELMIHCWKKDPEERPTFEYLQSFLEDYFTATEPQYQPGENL
# Sequence of Grb2 SH2 (P62993 whole entry, looked up): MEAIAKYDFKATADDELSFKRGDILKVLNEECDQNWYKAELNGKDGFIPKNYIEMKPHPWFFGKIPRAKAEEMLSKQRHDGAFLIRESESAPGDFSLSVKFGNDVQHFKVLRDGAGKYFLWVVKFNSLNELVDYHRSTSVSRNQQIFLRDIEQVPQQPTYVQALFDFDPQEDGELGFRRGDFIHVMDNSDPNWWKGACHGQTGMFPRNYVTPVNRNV
# Sequence of Hck (P08631 whole entry, looked up): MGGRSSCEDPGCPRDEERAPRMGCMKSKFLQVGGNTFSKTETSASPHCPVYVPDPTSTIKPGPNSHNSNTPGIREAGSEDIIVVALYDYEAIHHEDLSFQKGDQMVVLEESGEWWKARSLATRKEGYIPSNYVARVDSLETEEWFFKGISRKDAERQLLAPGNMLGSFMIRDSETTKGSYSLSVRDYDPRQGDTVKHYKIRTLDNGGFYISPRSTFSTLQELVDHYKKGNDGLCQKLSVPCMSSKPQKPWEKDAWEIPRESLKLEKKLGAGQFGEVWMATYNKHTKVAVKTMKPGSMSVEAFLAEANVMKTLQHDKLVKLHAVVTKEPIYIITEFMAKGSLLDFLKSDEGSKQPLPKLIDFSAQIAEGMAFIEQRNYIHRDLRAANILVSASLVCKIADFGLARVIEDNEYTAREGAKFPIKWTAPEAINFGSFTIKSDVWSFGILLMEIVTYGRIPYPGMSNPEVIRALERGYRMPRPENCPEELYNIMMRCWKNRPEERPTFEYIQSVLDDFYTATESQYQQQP
# Sequence of EPHB2 (P29323 whole entry, looked up): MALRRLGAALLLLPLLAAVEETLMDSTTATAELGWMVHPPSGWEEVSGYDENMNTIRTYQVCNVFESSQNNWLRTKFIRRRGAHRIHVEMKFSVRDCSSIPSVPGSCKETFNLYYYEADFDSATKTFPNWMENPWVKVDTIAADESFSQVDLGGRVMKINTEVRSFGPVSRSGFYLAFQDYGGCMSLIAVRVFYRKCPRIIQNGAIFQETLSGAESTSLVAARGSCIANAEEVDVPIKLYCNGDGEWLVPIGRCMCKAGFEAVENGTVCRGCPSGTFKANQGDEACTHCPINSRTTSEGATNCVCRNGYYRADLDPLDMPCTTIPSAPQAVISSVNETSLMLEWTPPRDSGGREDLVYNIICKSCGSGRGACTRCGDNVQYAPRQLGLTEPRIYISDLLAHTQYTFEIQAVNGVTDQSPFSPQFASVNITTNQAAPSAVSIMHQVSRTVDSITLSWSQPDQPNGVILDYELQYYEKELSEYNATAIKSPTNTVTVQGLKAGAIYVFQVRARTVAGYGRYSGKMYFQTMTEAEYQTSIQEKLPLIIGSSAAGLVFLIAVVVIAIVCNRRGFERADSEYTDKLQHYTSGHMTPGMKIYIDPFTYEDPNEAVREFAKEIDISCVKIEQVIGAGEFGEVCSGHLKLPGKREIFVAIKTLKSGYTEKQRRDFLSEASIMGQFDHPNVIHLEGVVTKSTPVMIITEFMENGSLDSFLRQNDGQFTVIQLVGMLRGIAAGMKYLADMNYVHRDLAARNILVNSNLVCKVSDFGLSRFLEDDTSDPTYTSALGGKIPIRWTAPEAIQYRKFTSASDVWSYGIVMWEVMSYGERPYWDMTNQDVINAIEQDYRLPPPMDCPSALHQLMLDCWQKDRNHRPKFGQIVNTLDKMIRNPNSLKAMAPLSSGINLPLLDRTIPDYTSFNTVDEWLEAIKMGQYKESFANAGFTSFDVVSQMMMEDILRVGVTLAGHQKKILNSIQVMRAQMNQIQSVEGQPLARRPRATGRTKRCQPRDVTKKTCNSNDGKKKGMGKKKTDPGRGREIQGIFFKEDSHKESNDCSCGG
Sequence,phosphorylation enrichment (Fyn),phosphorylation enrichment (MERTK),phosphorylation enrichment (Hck),phosphorylation enrichment (EPHB2),phosphorylation enrichment (AncSZ),phosphorylation enrichment (Fer (mouse)),phosphorylation enrichment (Jak2),phosphorylation enrichment (EPHB1),phosphorylation enrichment (FGFR3),phosphorylation enrichment (Fes),phosphorylation enrichment (FGFR1),phosphorylation enrichment (c-Abl (mouse)),phosphorylation enrichment (c-Src),SH2 binding enrichment (Grb2 SH2),SH2 binding enrichment (SHP2-C SH2),SH2 binding enrichment (c-Src SH2)
PGAPAYRVLME [MYO5A_Y1245],0.542,0.566,0.564,0.585,0.592,0.671,1.06,0.397,0.726,1.29,0.379,1.52,0.423,0.728,0.71,0.422
EDGRLYAVKCS [PKMYT1_Y136_R140C],0.589,0.549,0.792,0.609,0.972,0.529,0.861,0.594,0.66,1.12,0.513,0.82,0.63,0.795,0.714,0.473
EWLRRYLENGK [HLA-A_Y195],0.346,0.328,0.387,0.456,0.691,0.36,0.661,0.386,0.498,0.809,0.42,0.581,0.346,0.932,0.757,0.522
KALSLYTKLMN [STAM_Y371_E366K],0.46,0.446,0.537,0.774,1.36,0.588,1.14,0.673,0.872,1.32,0.555,0.605,0.393,1.12,3.1,2.23
LVTRSYLLGNS [LMNA_Y646],0.823,0.794,0.708,0.68,1.37,0.85,1.27,0.931,0.939,1.52,0.841,1.14,0.854,0.836,0.633,0.444
NDLMEYAKQHG [ASS1_Y163],0.457,0.426,0.502,0.471,0.852,0.541,0.856,0.48,0.563,0.896,0.487,0.75,0.437,0.724,0.621,0.381
LAARFYNWVCF [FLT4_Y1231_S1235C_YF],0.849,1.17,0.967,1.03,1.87,2.79,2.59,1.33,2.11,2.8,1.65,1.39,1.21,1.04,0.982,1.02
NTGDFCDLFGG [PTPN11_Y63_Y63C_YF],0.499,0.486,0.578,0.555,1.01,0.487,0.969,0.584,0.653,1.11,0.511,0.655,0.413,1.15,0.823,0.632
QKPLGYFRVNL [GALE_Y104_D103G_YF],0.657,0.577,0.648,0.635,1.2,0.399,1.16,0.518,0.722,1.12,0.839,0.67,0.409,1.56,1.36,1.09
RFLTRYIFNRE [HLA-DQB1_Y62_V59L_YF],0.606,0.578,0.452,0.567,1,0.897,1.29,0.624,0.674,1.17,0.408,0.631,0.706,0.67,1.17,0.593
VRTGIYHGGEP [PIK3CA_Y361],0.568,0.431,0.586,0.421,0.641,0.457,0.558,0.419,0.407,0.659,0.542,0.496,0.498,0.888,0.588,0.51
VDASFCGGRGV [ANTXR2_Y381_Y381C_YF],0.405,0.396,0.539,0.495,0.818,0.49,0.894,0.514,0.629,1.11,0.531,0.744,0.413,0.728,0.559,0.389
KAVLHYKHQNQ [MTOR_Y1804_E1799K],0.36,0.366,0.449,0.328,0.6,0.469,0.622,0.423,0.629,0.863,0.427,0.891,0.366,1.12,0.734,0.861
LLLLFYVVRFC [MPZ_Y177_YF],0.637,0.805,0.472,0.443,0.918,1.14,0.664,0.741,0.742,1.21,1.47,0.863,0.726,1.69,1.9,1.14
NHFKIHNLCAE [PTEN_Y68_Y68H_YF],0.466,0.437,0.394,0.374,0.58,0.384,0.459,0.384,0.441,0.642,0.428,0.367,0.432,1.04,0.751,0.513
NMSRIYSTAKV [ACE_Y151],0.477,0.417,0.528,0.493,0.573,0.416,0.535,0.342,0.448,0.563,0.451,0.545,0.477,0.901,1.25,0.545
LFEDCYLLGTS [ASS1_Y87_R86C_YF],1.01,0.442,0.58,0.716,2.1,0.752,1.39,0.572,1.15,1.5,0.895,1.17,1.6,1.24,0.924,0.647
TEAGNYKLCFD [TMED1_Y103_D102N],0.505,0.453,0.549,0.577,1.12,0.492,1.17,0.53,0.749,1.05,0.627,0.785,0.424,0.924,0.538,0.466
STILLYHIMAW [GPR143_Y157],0.766,4.05,1.44,2.88,1.59,1.02,1.89,4.83,2.88,1.64,2.8,1.23,1.01,0.876,0.899,0.634
FRRITYFNWRH [PDE6B_Y556_H557Y_YF],0.607,0.615,0.832,0.625,0.817,0.423,0.852,0.626,0.476,0.8,0.553,0.573,0.673,0.821,1.99,0.363
TSESSYFKSLN [NGEF_Y288_A286S_YF],0.395,0.362,0.455,0.37,0.766,0.436,0.67,0.433,0.705,0.91,0.41,0.636,0.411,0.776,0.553,0.437
DAVCYYRMENA [NPHS2_Y195_I192V],1.34,1.82,1.37,0.588,1.9,0.704,6.76,0.622,6.2,1.1,7.53,0.956,3.44,0.676,0.648,0.548
MQMEEYRGWVE [BTNL2_Y91],0.409,0.423,0.464,0.711,1.22,0.449,1.25,0.503,0.599,1.07,0.488,0.545,0.553,0.946,0.392,0.391
STFVPCEIKVQ [L1CAM_Y784_Y784C],0.49,0.386,0.589,0.727,1.3,0.669,1.39,0.685,1.05,1.61,0.579,1.04,0.444,0.819,0.578,0.497
LGNFNYEQRGA [API5_Y497],0.435,0.392,0.485,0.456,0.761,0.408,0.919,0.474,0.507,0.986,0.569,0.715,0.43,0.87,0.487,0.462
TIQRMYGCDVG [HLA-A_Y123_I121R],0.442,0.448,0.45,0.57,0.761,0.46,0.789,0.504,0.598,1.05,0.56,0.775,0.594,0.636,0.968,0.479
HFGCIYHGTLL [MET_Y1093_V1092I],1,0.527,0.949,0.951,1.4,0.716,1.38,0.714,0.931,1.46,0.984,1.34,4.15,0.758,0.548,0.58
SYSGEYGSGGG [ZG16_Y30_G32S],0.417,0.53,0.534,0.429,0.763,0.462,0.727,0.454,0.512,0.696,0.419,0.596,0.545,0.782,0.794,0.495
RLPSGYGLAYR [DLK1_Y262],0.295,0.385,0.555,0.315,0.627,0.418,0.46,0.464,0.479,0.61,1.32,0.414,0.39,0.855,0.954,0.844

# From the supplement of paper PMC10065799, “High-throughput profiling of sequence recognition by tyrosine kinases and SH2 domains using bacterial peptide display” (eLife, 2023)
